According to the supplement of paper PMC7877785:
± gives the uncertainty stated by the source.

Experiment: self-splicing fitness, log relative to wild type (ln ratio); higher = more splicing; Tetrahymena group I intron in knt gene, E. coli kanamycin selection, DiMSum; sequences stand for … in CUCUCU…GGAGGGAAAAGUUAUCAGGCAUGCACCUGGUAGCUAGUCUUUAAACCAAUAGAUUGCAUCGGUUUAAAAGGCAAGACCGUCAAAUUGCGGGAAAGGGGUCAACAGCCGUUCAGUACCAAGUCUCAGGGGAAACUUUGAGAUGGCCUUGCAAAGGGUAUGGUAAUAAGCUGACGGACAUGGUCCUAACCACGCAGCCAAGUCCUAAGUCAACAGAUCUUCUGUUGAUAUGGAUGCAGUUCACAGACUAAAUGUCGGUCGGGGAAGAUGUAUUCUUCUCAUAAGAUAUAGUCGGACCUCUCCUUAAUGGGAGCUAGCGGAUGAAGUGAUGCAACACUGGAGCCGCUGGGAACUAAUUUGUAUGCGAAAGUAUAUUGAUUAGUUUUGGAGUACUCGUGGUCG
Method in brief: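 Six replicate transformations of E. coli BL21(DE3) with a pET-22b(+) library were grown overnight at 37°C or 30°C. The library randomised all eight P1ex-region intron nucleotides, the intron lying in the knt kanamycin-resistance gene, and plates were LB agar with or without 25 μg/mL kanamycin plus 100 μg/mL carbenicillin, 50 μM IPTG and 0.2% rhamnose. Pooled colonies were amplicon-sequenced on an Illumina HiSeq 2500, and fitness is the DiMSum error-weighted combination of wild-type-normalised replicate fold changes, kanamycin versus none.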

Row | Sequence | self-splicing fitness (ln) (30 °C) | self-splicing fitness (ln) (37 °C)
1 | UUCUAGCAAUAUUACGAUAA | -1.46 ± 0.16 | -0.147 ± 0.19
2 | UGACAGCAAUAUUACGUUCC | -1.55 ± 0.1 | -0.947 ± 0.14
3 | UGCUAGCAAUAUUACGCAAU | -3.02 ± 0.3 | -2.31 ± 0.29
4 | CAACAGCAAUAUUACGAUUC | -0.966 ± 0.087 | -0.733 ± 0.11
5 | CUUAAGCAAUAUUACGGACG | -0.229 ± 0.085 | 0.228 ± 0.12
6 | AGCGAGCAAUAUUACGGAGG | -3.59 ± 0.47 | -1.53 ± 0.33
7 | GUGUAGCAAUAUUACGGUUG | -2.88 ± 0.14 | -2.61 ± 0.16
8 | UAGUAGCAAUAUUACGUCGC | -4.1 ± 0.43 | -2.3 ± 0.28
9 | CUAUAGCAAUAUUACGUCAG | -1.75 ± 0.11 | -0.591 ± 0.12
10 | GACUAGCAAUAUUACGAGAU | -2.93 ± 0.19 | -1.57 ± 0.21
11 | CGUAAGCAAUAUUACGCAAG | -1.99 ± 0.13 | -1.01 ± 0.13
12 | AAUGAGCAAUAUUACGCCUU | -2.11 ± 0.13 | -1.43 ± 0.15
13 | AAGAAGCAAUAUUACGCAGU | -2.66 ± 0.18 | -2.08 ± 0.15
14 | UUUCAGCAAUAUUACGACAU | -1.41 ± 0.015 | -0.565 ± 0.033
15 | CUAUAGCAAUAUUACGUUCG | -0.385 ± 0.094 | -0.145 ± 0.14
16 | GCGGAGCAAUAUUACGGCGA | -1.5 ± 0.23 | -1.29 ± 0.28
17 | UGGCAGCAAUAUUACGGGUC | -3.28 ± 0.29 | -1.28 ± 0.28
18 | AUUAAGCAAUAUUACGUAAC | -2.12 ± 0.12 | -1.88 ± 0.14
19 | UGAGAGCAAUAUUACGGCCA | -1.63 ± 0.25 | 
20 | CUAUAGCAAUAUUACGUAAG | -0.717 ± 0.058 | 0.183 ± 0.084
21 | GACAAGCAAUAUUACGGUCU | -4.04 ± 0.16 | -2.42 ± 0.15
22 | AAUUAGCAAUAUUACGCCCG | -1.04 ± 0.18 | 0.376 ± 0.28
23 | ACGAAGCAAUAUUACGUCAA | -3.35 ± 0.17 | -3.51 ± 0.22
24 | GUGGAGCAAUAUUACGCUUA | -1.86 ± 0.14 | -1.04 ± 0.22
25 | GCGAAGCAAUAUUACGGGGU | -3.89 ± 0.34 | -2.89 ± 0.29
26 | UGAUAGCAAUAUUACGAGGA | -3.09 ± 0.3 | -2.82 ± 0.48
27 | CCUUAGCAAUAUUACGUUCU | -4.18 ± 0.46 | -1.5 ± 0.34

Row | Sequence | self-splicing fitness (ln) (30 °C) | self-splicing fitness (ln) (37 °C)
28 | UGACAGCAAUAUUACGAAAG | -3.07 ± 0.25 | -2.15 ± 0.2
29 | GGGAAGCAAUAUUACGUGAG | -0.751 ± 0.12 | -1.46 ± 0.12
30 | CACCAGCAAUAUUACGAAAG | -0.231 ± 0.041 | -0.141 ± 0.064
31 | GCCGAGCAAUAUUACGCUAG | -2.67 ± 0.17 | -3.17 ± 0.29
32 | GCCGAGCAAUAUUACGCUGG |  | -2.07 ± 0.33
33 | GAGCAGCAAUAUUACGCGGA | -2.11 ± 0.11 | -0.965 ± 0.09
34 | AACUAGCAAUAUUACGUUUG | -3.27 ± 0.15 | -1.72 ± 0.14
35 | GAUGAGCAAUAUUACGCAGC |  | -1.61 ± 0.41
36 | GCCGAGCAAUAUUACGGGUU | -3.35 ± 0.17 | -0.886 ± 0.092
37 | UGACAGCAAUAUUACGCUCG | -1.1 ± 0.11 | -0.143 ± 0.14
38 | UAUAAGCAAUAUUACGCUAU | -3.91 ± 0.28 | -1.92 ± 0.18
39 | AUAAAGCAAUAUUACGGCCC | 0.659 ± 0.39 | 0.503 ± 0.43
40 | UGAUAGCAAUAUUACGCAGU | -2.93 ± 0.44 | -2.51 ± 0.27
41 | CCUUAGCAAUAUUACGAAGG | -3.53 ± 0.32 | 
42 | UACUAGCAAUAUUACGAAUU | -4.02 ± 0.42 | -2.32 ± 0.25
43 | CGGUAGCAAUAUUACGGAGA | -3.87 ± 0.32 | -2.72 ± 0.21
44 | ACUGAGCAAUAUUACGGGGA | -2.48 ± 0.17 | -1.92 ± 0.18
45 | UCAAAGCAAUAUUACGCGCA | -0.442 ± 0.066 | -0.207 ± 0.077
46 | CUGGAGCAAUAUUACGAGUG | -1.26 ± 0.087 | -0.568 ± 0.12
47 | CCUAAGCAAUAUUACGGUGU | -4.62 ± 0.23 | -1.89 ± 0.16
48 | ACAGAGCAAUAUUACGGGAG | -3.51 ± 0.28 | -1.62 ± 0.21
49 | GCACAGCAAUAUUACGUGGA | -0.386 ± 0.064 | -0.281 ± 0.065
50 | CGGGAGCAAUAUUACGCAAU | -3.15 ± 0.39 | 
51 | CCAGAGCAAUAUUACGUGUC | -2.88 ± 0.21 | -2.29 ± 0.32
52 | GCCCAGCAAUAUUACGGAGU | -2.57 ± 0.084 | -0.683 ± 0.085
53 | UGCGAGCAAUAUUACGCAGG | -4.38 ± 0.46 | -2.18 ± 0.28
54 | AGGUAGCAAUAUUACGGCUU | -0.489 ± 0.015 | -0.184 ± 0.034

Row | Sequence | self-splicing fitness (ln) (30 °C) | self-splicing fitness (ln) (37 °C)
55 | CGUAAGCAAUAUUACGAAAC | -2.84 ± 0.32 | 
56 | GAAGAGCAAUAUUACGAUUU | -1.31 ± 0.079 | -1.04 ± 0.14
57 | AGACAGCAAUAUUACGUUCU | -3.7 ± 0.18 | -3.16 ± 0.21
58 | AUCCAGCAAUAUUACGGUCC | -1.39 ± 0.13 | -0.176 ± 0.21
59 | GACAAGCAAUAUUACGCUAA | -3.01 ± 0.23 | -2.11 ± 0.2
60 | AUUAAGCAAUAUUACGCGUG | -0.804 ± 0.067 | -0.697 ± 0.081
61 | UCUUAGCAAUAUUACGGGCU | -4.8 ± 0.46 | -2.26 ± 0.28
62 | UGUAAGCAAUAUUACGGCAG | -0.191 ± 0.091 | 0.0264 ± 0.11
63 | GGCAAGCAAUAUUACGGUGG | -2.24 ± 0.11 | -1.81 ± 0.14
64 | GGAUAGCAAUAUUACGCUAG | -2.26 ± 0.19 | -1.21 ± 0.18
65 | AGGAAGCAAUAUUACGAAUA | -2.74 ± 0.36 | -1.11 ± 0.27
66 | CCAUAGCAAUAUUACGGCAC |  | -1.84 ± 0.28
67 | CUGAAGCAAUAUUACGCUGG | -3.37 ± 0.33 | -2.3 ± 0.34
68 | AACGAGCAAUAUUACGUACC | -2.91 ± 0.23 | -1.9 ± 0.2
69 | AGUUAGCAAUAUUACGAACG | -0.391 ± 0.088 | 0.572 ± 0.14
70 | CGCAAGCAAUAUUACGUGGG | -4.69 ± 0.25 | -3.16 ± 0.17
71 | GGGCAGCAAUAUUACGAUUG | -3.83 ± 0.4 | -2.84 ± 0.27
72 | GAGAAGCAAUAUUACGUCGC | -2.17 ± 0.42 | 
73 | CAAAAGCAAUAUUACGUACA | -1.91 ± 0.1 | -1.54 ± 0.13
74 | GACGAGCAAUAUUACGAACG | -0.929 ± 0.34 | 
75 | UAAGAGCAAUAUUACGGUGA | -3.83 ± 0.23 | -2.14 ± 0.16
76 | UAGCAGCAAUAUUACGAUCA | 0.112 ± 0.088 | 0.169 ± 0.099
77 | AAGUAGCAAUAUUACGAGAC | -2.6 ± 0.33 | 
78 | AGCUAGCAAUAUUACGCAGG | -3.49 ± 0.22 | -3.93 ± 0.33
79 | GACAAGCAAUAUUACGUUAA | -2.19 ± 0.12 | -1.71 ± 0.15
